# Publication PMC9537309, “The solution structure of Dead End bound to AU-rich RNA reveals an unusual mode of tandem RRM-RNA recognition required for mRNA regulation”
# T1: DND1 extended RRM1 (human, UniProt Q8IYX4 12-139)
# T1 sequence: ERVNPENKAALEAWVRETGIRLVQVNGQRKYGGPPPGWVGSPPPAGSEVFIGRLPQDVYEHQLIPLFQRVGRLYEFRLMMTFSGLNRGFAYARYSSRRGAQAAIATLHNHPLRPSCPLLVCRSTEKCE
# T2: DND1 RRM2 (human, UniProt Q8IYX4 136-227)
# T2 sequence: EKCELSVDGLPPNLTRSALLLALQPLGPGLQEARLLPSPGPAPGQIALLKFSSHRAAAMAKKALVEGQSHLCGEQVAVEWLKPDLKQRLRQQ
# T3: DND1 RRM12 M90A (human, UniProt Q8IYX4 12-235, M90A)
# T3 sequence: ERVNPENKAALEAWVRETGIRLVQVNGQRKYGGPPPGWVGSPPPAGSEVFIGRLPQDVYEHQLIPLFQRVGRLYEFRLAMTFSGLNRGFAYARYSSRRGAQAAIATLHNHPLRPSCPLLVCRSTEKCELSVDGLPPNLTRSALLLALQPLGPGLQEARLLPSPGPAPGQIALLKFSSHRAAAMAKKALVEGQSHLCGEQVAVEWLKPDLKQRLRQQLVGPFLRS
# T4: DND1 RRM12 R98A (human, UniProt Q8IYX4 12-235, R98A)
# T4 sequence: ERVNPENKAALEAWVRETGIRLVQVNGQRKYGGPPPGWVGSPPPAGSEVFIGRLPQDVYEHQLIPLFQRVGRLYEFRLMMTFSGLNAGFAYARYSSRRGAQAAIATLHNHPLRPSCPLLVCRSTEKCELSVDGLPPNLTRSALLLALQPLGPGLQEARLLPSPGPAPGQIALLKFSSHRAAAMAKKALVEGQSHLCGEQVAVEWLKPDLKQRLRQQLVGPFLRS
# T5: DND1 RRM12 T135A (human, UniProt Q8IYX4 12-235, T135A)
# T5 sequence: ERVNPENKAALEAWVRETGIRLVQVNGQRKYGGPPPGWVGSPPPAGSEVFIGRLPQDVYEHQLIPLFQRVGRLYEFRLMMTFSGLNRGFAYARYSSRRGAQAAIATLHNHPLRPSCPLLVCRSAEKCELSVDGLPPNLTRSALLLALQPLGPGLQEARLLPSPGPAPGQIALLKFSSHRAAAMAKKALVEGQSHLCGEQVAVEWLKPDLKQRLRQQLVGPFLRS
# T6: DND1 RRM12 (tandem RRMs) WT (human, UniProt Q8IYX4 12-235)
# T6 sequence: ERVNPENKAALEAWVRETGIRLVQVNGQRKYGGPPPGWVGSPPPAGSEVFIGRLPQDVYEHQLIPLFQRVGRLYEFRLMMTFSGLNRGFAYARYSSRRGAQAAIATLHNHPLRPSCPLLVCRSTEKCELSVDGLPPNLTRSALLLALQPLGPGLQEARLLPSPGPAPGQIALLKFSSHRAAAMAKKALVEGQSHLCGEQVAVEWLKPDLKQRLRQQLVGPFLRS
# T7: DND1 RRM12 K197A (human, UniProt Q8IYX4 12-235, K197A)
# T7 sequence: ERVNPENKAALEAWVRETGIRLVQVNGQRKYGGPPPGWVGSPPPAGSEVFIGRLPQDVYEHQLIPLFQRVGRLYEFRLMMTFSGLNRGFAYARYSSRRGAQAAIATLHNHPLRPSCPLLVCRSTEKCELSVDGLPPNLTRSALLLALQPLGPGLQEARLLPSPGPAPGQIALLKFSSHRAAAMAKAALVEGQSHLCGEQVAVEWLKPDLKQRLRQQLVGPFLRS
# Legend:
# DND1 extended RRM1 = biological target: T1, DND1 extended RRM1; test: NMR titration; ITC: 100 mM potassium phosphate pH 6.6, 1 mM 2-mercaptoethanol, 25 C; NMR: 100 mM potassium phosphate pH 6.6, 1 mM DTT, 298 K (or 20 mM MES pH 6.6, 100 mM NaCl); Supplementary Fig. 3: 25 mM NaCl, 2 mM DTT, pH 6.3, 303 K; conditions: protein: recombinant; tags: N-terminal 6xHis, TEV-cleaved
# DND1 RRM2 = biological target: T2, DND1 RRM2; test: as above; conditions: protein: recombinant; tags: N-terminal 6xHis, TEV-cleaved
# DND1 RRM12 M90A = biological target: T3, DND1 RRM12 M90A; test: as above; conditions: protein: recombinant; tags: N-terminal 6xHis, TEV-cleaved; label: selective 13C-ribose in some structure samples; unlabeled in titrations
# DND1 RRM12 R98A = biological target: T4, DND1 RRM12 R98A; test: as above; conditions: protein: recombinant; tags: N-terminal 6xHis, TEV-cleaved; label: selective 13C-ribose in some structure samples; unlabeled in titrations
# DND1 RRM12 T135A = biological target: T5, DND1 RRM12 T135A; test: NMR titration; binding not reduced; ITC: 100 mM potassium phosphate pH 6.6, 1 mM 2-mercaptoethanol, 25 C; NMR: 100 mM potassium phosphate pH 6.6, 1 mM DTT, 298 K (or 20 mM MES pH 6.6, 100 mM NaCl); Supplementary Fig. 3: 25 mM NaCl, 2 mM DTT, pH 6.3, 303 K; conditions: protein: recombinant; tags: N-terminal 6xHis, TEV-cleaved; label: selective 13C-ribose in some structure samples; unlabeled in titrations
# [1] = biological target: T6, DND1 RRM12 (tandem RRMs) WT; test: ITC; N = 1.04; text and Supplementary Table 2 print 0.68; ITC: 100 mM potassium phosphate pH 6.6, 1 mM 2-mercaptoethanol, 25 C; NMR: 100 mM potassium phosphate pH 6.6, 1 mM DTT, 298 K (or 20 mM MES pH 6.6, 100 mM NaCl); Supplementary Fig. 3: 25 mM NaCl, 2 mM DTT, pH 6.3, 303 K; conditions: protein: recombinant; tags: N-terminal 6xHis, TEV-cleaved; label: selective 13C-ribose in some structure samples; unlabeled in titrations
# DND1 RRM12 K197A = biological target: T7, DND1 RRM12 K197A; test: ITC; N = 0.98; ITC: 100 mM potassium phosphate pH 6.6, 1 mM 2-mercaptoethanol, 25 C; NMR: 100 mM potassium phosphate pH 6.6, 1 mM DTT, 298 K (or 20 mM MES pH 6.6, 100 mM NaCl); Supplementary Fig. 3: 25 mM NaCl, 2 mM DTT, pH 6.3, 303 K; conditions: protein: recombinant; tags: N-terminal 6xHis, TEV-cleaved; label: selective 13C-ribose in some structure samples; unlabeled in titrations
# [2] = biological target: T6, DND1 RRM12 (tandem RRMs) WT; test: NMR titration; highest affinity of the three oligos; ITC: 100 mM potassium phosphate pH 6.6, 1 mM 2-mercaptoethanol, 25 C; NMR: 100 mM potassium phosphate pH 6.6, 1 mM DTT, 298 K (or 20 mM MES pH 6.6, 100 mM NaCl); Supplementary Fig. 3: 25 mM NaCl, 2 mM DTT, pH 6.3, 303 K; conditions: protein: recombinant; tags: N-terminal 6xHis, TEV-cleaved
binder,measurement,setting,value
UUUUUCC (ssRNA),binding result,DND1 extended RRM1,no binding
same,binding result,DND1 RRM2,no binding
CUUAUUUG (ssRNA),binding result,DND1 RRM12 M90A,no binding
same,binding result,DND1 RRM12 R98A,no binding
same,binding result,DND1 RRM12 T135A,binds
same,Kd,[1],0.69 ± 0.03 µM
same,Kd,DND1 RRM12 K197A,2.6 ± 0.1 µM
UUUUUAC (ssRNA),binding result,DND1 extended RRM1,no binding
same,binding result,DND1 RRM2,no binding
UUAUUU (ssRNA),binding result,DND1 RRM2,no binding
same,binding result,[2],binds
